{
  "source": "the nanobody polyreactivity screen of Harvey et al. (2022)",
  "data": [
    {"assay": "yeast display, Sf9 membrane polyspecificity reagent, FACS + sequencing; frameworks hold sequencing errors", "in_short": "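Polyreactivity labels are assigned by the sorting gate from which each nanobody was recovered. The gates were low and high (top ~1%), set on anti-HA fluorescence for expression and streptavidin fluorescence for reagent binding. Before sorting, galactose-induced (36–48 hours) yeast display cells were stained for 1 hour at 4 °C with 10% biotinylated, detergent-solubilized Sf9 membrane reagent.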", "values": [
      {"sequence": "QVQLVESGGGLVQAGGSLRLSCAASGNIFGEYAMGWYRQAPGKERELVATISSGGDTYYADSVKGRFTISRDNAKNTVYLQMNSLKPEDTAVYYCAVVDTLYESKYDYWGQGTQVTVSS", "polyreactivity (PSR sort gate)": "low polyreactivity"},
      {"sequence": "QVQLVESGGGLVQAGGSLRLSCAASGNIFGFYTMGWYRQAPGKERELVAAIRSRGGSTNYADSVKGRFTISRDNAKNTVYLQMNSLTPEDTAVYYCNKDGTWLARAVTYADFDYWGQGTQVTVSS", "polyreactivity (PSR sort gate)": "low polyreactivity"},
      {"sequence": "QVQLVESGGGLVQAGGSLRLSCAASGNIFGGNAMGWYRQAPGKERELVAAITRGGSTYYADSVKGRFTISRDNAKNTVYLQMNSLTPEDTAVYYCAAQLFKWKNRQSLWFDHGYYWGQGTQLTVSS", "polyreactivity (PSR sort gate)": "low polyreactivity"},
      {"sequence": "QVQLVESGGGLVQAGGSLRLSCAASGNIFGGYAMGWYRQAPGKERELVATIRDRGGSTYYADSVKGRFTISRDNAKNSVYLQMNSLKPEDTAVYYCNPRFRTYRLTMEYWGQGTQVTVSS", "polyreactivity (PSR sort gate)": "high polyreactivity"},
      {"sequence": "QVQLVESGGGLVQAGGSLRLSCAASGNIFGNNAMGWYRPEPGKERELVAAISSSGTSTYYADSVKGRFTISLDNAKNTVYLQMNSLKPEDTAVYYCNADPLPYDGYYDYDYWGQGTQVTVSS", "polyreactivity (PSR sort gate)": "low polyreactivity"},
      {"sequence": "QVQLVESGGGLVQAGGSLRLSCAASGNIFGNNAMGWYRQAPGKERELVAAISSSGTSTYYADSVKGRFTISRDNAKNTVYFQMNSLKPEDTAVYYCNADPLPYDGYYDYDYWGQGTQVTVSS", "polyreactivity (PSR sort gate)": "low polyreactivity"},
      {"sequence": "QVQLVESGGGLVQAGGSLRLSCAASGNIFGPNAMGWYRQAPGKESELVAAISISGSTYYADSVKGRFTISRDNAKNTVYLQRNSLNPEDTAVYYCAADYDSDYSWKYNYWGQGTQVTVSS", "polyreactivity (PSR sort gate)": "low polyreactivity"},
      {"sequence": "QVQLVESGGGLVQAGGSLRLSCAASGNIFGRYAMGWYRQAPGKARELVAAISGSGGRTYYADSVKGRFTISRYNAKKTVYLQMNSLKPEDTAVYYCAKVFALRGYDYWGQGTQVTVSS", "polyreactivity (PSR sort gate)": "high polyreactivity"},
      {"sequence": "QVQLVESGGGLVQAGGSLRLSCAASGNIFGSNAMGWYRQAPGKERELVAAISGSNGGTYYADSVKGRFTISRDNAKNTVYLQMNSLKPEDTAVYYCNADFFSRWGYRYMDYWGQGTQVTVSS", "polyreactivity (PSR sort gate)": "low polyreactivity"},
      {"sequence": "QVQLVESGGGLVQAGGSLRLSCAASGNIFIYNAMGWYRQAPGKERELVASITYSGDSTYYADSVKGRFTISRDNAKNTVYLQMNSLKPEDTAVYFCAAQGYGWWYDYWGQGSQVTVSS", "polyreactivity (PSR sort gate)": "low polyreactivity"},
      {"sequence": "QVQLVESGGGLVQAGGSLRLSCAASGNIFKGYAMGWYRQAPGKERELVAAISKSGGSTYYADSVKGRFTISRDNAKNTVYLQMNSLKPDDTAVYYCNTYTYAGYNYWGQGTQVTVSS", "polyreactivity (PSR sort gate)": "high polyreactivity"},
      {"sequence": "QVQLVESGGGLVQAGGSLRLSCAASGNIFKVYVMGGSRQAPGKERELVAAISGSGGSTYYADSVKGRFTISRDNAKTTVYLQMNSLKPEDTSVYYCNKVFKVTAARSFGYWGQGTQVTVSS", "polyreactivity (PSR sort gate)": "low polyreactivity"},
      {"sequence": "QVQLVESGGGLVQAGGSLRLSCAASGNIFLFYVMGWYRQAPGKERELVAAITLSGTNTYYADSVKGRFTISRDNAKNTVYLQMNSLKPEDTAVYYCNADWWSDGYDYWGQGTQVTVSS", "polyreactivity (PSR sort gate)": "low polyreactivity"},
      {"sequence": "QVQLVESGGGLVQAGGSLRLSCAASGNIFLSYAIGCYRQAPGKEREFVPAIRWSGASTYYADSVKGRFTISRDNAKNTVELQMNSLKPEDTAVYYCGRRALCPRRGIRYDYWGQGSQVTVSS", "polyreactivity (PSR sort gate)": "high polyreactivity"},
      {"sequence": "QVQLVESGGGLVQAGGSLRLSCAASGNIFLYYDMGWYRQAPGKERELVADIDSSGASTYYADSVKGRFTISRDNAKNTVYLQMNSLKPEDTAVYYCAAELHWWYAGYEYGYWGQGTQVTVSS", "polyreactivity (PSR sort gate)": "low polyreactivity"},
      {"sequence": "QVQLVESGGGLVQAGGSLRLSCAASGNIFPAYVMGWYRQAPGKERELVAAITDSDGSTFYADSVKGRFTISRDNAKNTVYLQMNSLKPEDTAVYYCAAYSYRQGWGFGYWGQGTQVTVSS", "polyreactivity (PSR sort gate)": "low polyreactivity"},
      {"sequence": "QVQLVESGGGLVQAGGSLRLSCAASGNIFPRNAMGWYRQAPGKERELVAAISASGDNTYYADSVKGRFTISRDNAKNTVYLQMNSLKPEDTAVYYCAAGTFYESIQPYESVAYDYWGQGTQVTVSS", "polyreactivity (PSR sort gate)": "low polyreactivity"},
      {"sequence": "QVQLVESGGGLVQAGGSLRLSCAASGNIFPYYAMGWYRQAPGKERELVAAISGSGDRTYYADSVKGRFTIARDNAKNTVYLQMNSLKPEDTAVYYCAASRRYYGWYEYWGQGSQVTVSS", "polyreactivity (PSR sort gate)": "high polyreactivity"},
      {"sequence": "QVQLVESGGGLVQAGGSLRLSCAASGNIFPYYAMGWYRQAPGKERELVASISRSGGSTYYADSVKGRFTISRDNAKNTVYLQMNSLKPEDTAVYYCAKRTPYYGFGFFHPARGYGYWGQGTQVTVSS", "polyreactivity (PSR sort gate)": "low polyreactivity"},
      {"sequence": "QVQLVESGGGLVQAGGSLRLSCAASGNIFQKYAMGWYRQAPGKERELVAAIRRGDRTYADSVKGRFTISRDNAKNTVYLQMNSLKPEDTAVYYCNTAGASYFTAGYGYWGQGTQVTVSS", "polyreactivity (PSR sort gate)": "low polyreactivity"},
      {"sequence": "QVQLVESGGGLVQAGGSLRLSCAASGNIFSAYAMGWYRQAPGKERELVAAITNGGRTNYADSVKGRFSISRDNAKNTVYLQMNSLKPEDTAVYYCAVASTILGKRTYYYWGQGTQVTVSS", "polyreactivity (PSR sort gate)": "low polyreactivity"},
      {"sequence": "QVQLVESGGGLVQAGGSLRLSCAASGNIFSDNAMGWYIQAPGKERELVAAITSGGSTNYADSVKGRFTISLDNAKNTVYLQMISLKPEDNAVYYCAADISYRHFLFDYWGQGTQVTVSS", "polyreactivity (PSR sort gate)": "low polyreactivity"},
      {"sequence": "QVQLVESGGGLVQAGGSLRLSCAASGNIFSLNGMGWYRQAPGKEREFVAAITWSVGSTSSADSVKGRFTISRDNAKNTVYLQMNSLKPEDTAVYYGAATVSDLYKHEYYYWGQGTQVTVSS", "polyreactivity (PSR sort gate)": "low polyreactivity"},
      {"sequence": "QVQLVESGGGLVQAGGSLRLSCAASGNIFSPYAMGWYRPAPGKERELVAAISSGDSTYYADSVKGRFTISRDNAKNTVYLQMNSLKPEDTAVYYCAADANYSNYQYYEFDYWGQGTQVTVSS", "polyreactivity (PSR sort gate)": "low polyreactivity"},
      {"sequence": "QVQLVESGGGLVQAGGSLRLSCAASGNIFSRYAMGWYREPRGKERELVAAISSSGGTTYYADSVKGRFTISRDNAKNTVYLQMNSLKPEDTAVYYCNARRRQIYSEFGYWGQGTQVTVSS", "polyreactivity (PSR sort gate)": "high polyreactivity"},
      {"sequence": "QVQLVESGGGLVQAGGSLRLSCAASGNIFSTYAMGWYRQAPGKERELVASISENGGSTYYADSVKGRFTISRDNAKNTVYLQMNSLKPEDTAVYYCNADAYVYFDDGDYWGQGTQVTVSS", "polyreactivity (PSR sort gate)": "low polyreactivity"},
      {"sequence": "QVQLVESGGGLVQAGGSLRLSCAASGNIFTSNAMGWYRQAPGKERELVAAITSGGSTYYADSLKGRFTISRDNAKNTVYLQMISLKPEDTAVYYCATLRRPHLRPYYYWGQGTQVTVSS", "polyreactivity (PSR sort gate)": "high polyreactivity"},
      {"sequence": "QVQLVESGGGLVQAGGSLRLSCAASGNIFTTYAMGWYRQAPGKERELVAAISRSGGRTNYADSVKGRFTISRDNAKNTVYLQLNSLKPEDTAVYYCAADGVPGRAVDYEYWGQGTQVTVSS", "polyreactivity (PSR sort gate)": "high polyreactivity"},
      {"sequence": "QVQLVESGGGLVQAGGSLRLSCAASGNIFVAYAMGWYRQAPGKEREMVAAISSRGGRTYYADSVKGRFTISRDNAKNTVYLQMNSLKPEDTAVYYCATDVGYYRKYEYYYWGQGTQVTVSS", "polyreactivity (PSR sort gate)": "high polyreactivity"},
      {"sequence": "QVQLVESGGGLVQAGGSLRLSCAASGNIFVFYVMGWYRQAPGNEREFVASFSSTGNTYYADSVKGRFTISRDNAKNTVYLQLNSLKPEDTAVYYCAADSHQNVSGWLRWPRMDYWGQGTQVTVSS", "polyreactivity (PSR sort gate)": "low polyreactivity"},
      {"sequence": "QVQLVESGGGLVQAGGSLRLSCAASGNIFVNYAMGWYRQAPGKERELVASINYNGGNTYYADSVKGRFTISRDNAKNTVYLQMNSLKPEDTAVYYCAKDGGGLLRWYTDEYDYWGQGTQVTVSS", "polyreactivity (PSR sort gate)": "low polyreactivity"},
      {"sequence": "QVQLVESGGGLVQAGGSLRLSCAASGNIFVRYSKGWYRQAPGKERELVAVISSGGSTNYADSVKGRFTISRDNAKNTVYLQMNSLKPEDSAVYYCARKYYSQAISSRKYGYWGQGTQVTVSS", "polyreactivity (PSR sort gate)": "high polyreactivity"},
      {"sequence": "QVQLVESGGGLVQAGGSLRLSCAASGNIFVTYDMGWYRQAPGKEREMVASISWNGGSTHYADSVKGLFTISGDNAKYSVYLQMNSRKPEDTAVYYCAAEYWTSYADYRYDYWGQGTQVTVSS", "polyreactivity (PSR sort gate)": "low polyreactivity"},
      {"sequence": "QVQLVESGGGLVQAGGSLRLSCAASGNIFYAYDMGWYRQAPGKERELVAAITNGDSTDYADSVKGRFTISRENAKNTVYLQMNSLKPEDTAVYYCNADYLPAPWALGGSQYDYCGQGTQVTVSS", "polyreactivity (PSR sort gate)": "low polyreactivity"},
      {"sequence": "QVQLVESGGGLVQAGGSLRLSCAASGNIFYGYAMGWYRQAPGKERELVAAITSSGGGTSYADSVKGRFTISRDNAKNTVYLQMNSLKPVDTAVYYCTKRPWYLSDYWGQGTQVTVSS", "polyreactivity (PSR sort gate)": "low polyreactivity"},
      {"sequence": "QVQLVESGGGLVQAGGSLRLSCAASGNIFYKNTMGWYRQAPGKERELVAAISVSGGGTYYADSVKGRFTISRDNAKNTVYLQMNSLKPEDTAVYYCAASHRRSGGQPRYYYWGQGTQVSVSS", "polyreactivity (PSR sort gate)": "high polyreactivity"},
      {"sequence": "QVQLVESGGGLVQAGGSLRLSCAASGNIFYQYAMGWYRQAPGKEREFVAAISISGTSTYADSVKGRFTISRDNAKNTVYLQMNSLKPEDTAVYWGQGTQVTVSS", "polyreactivity (PSR sort gate)": "low polyreactivity"},
      {"sequence": "QVQLVESGGGLVQAGGSLRLSCAASGNIFYYNAMGWYRQAPGKERELVAAISDSGSSTHYADSVKGRFTISRDNAKNTVYLQMNSLKPEDTAVYYCGARATTNRFRYYYWGQGTQVTVSS", "polyreactivity (PSR sort gate)": "high polyreactivity"},
      {"sequence": "QVQLVESGGGLVQAGGSLRLSCAASGNIFYYYAMGWYRQAPGKERELVATNTSGGSTNYADSVKGRFTISRDNAKNTVYLQMNSLKPEDTAVYYCAADRRRTYYWLSSYFEGYYWGQGTQVTVSS", "polyreactivity (PSR sort gate)": "low polyreactivity"},
      {"sequence": "QVQLVESGGGLVQAGGSLRLSCAASGNIIAYYAMGWSRQPPGKDRELVAAITDSGGNTFYADSVKGRFTISRDNAKNSVFLQMNSLKPEDTAVYYCAADPDCWGFVYPRYDYWGQGTQVTVSS", "polyreactivity (PSR sort gate)": "low polyreactivity"},
      {"sequence": "QVQLVESGGGLVQAGGSLRLSCAASGNIIVENAMGWYRQAPAKERELVAVSTSGTSTYADSVKGRFTISRDNAKITVYLQMNSLKPEDTAVYYCNARRINTLYDYWGQGTQVTVSS", "polyreactivity (PSR sort gate)": "low polyreactivity"},
      {"sequence": "QVQLVESGGGLVQAGGSLRLSCAASGNILGYNAMGWYRQAPGKERELVAAITQSGGSTYYADSVKGRFTISRDNAKNTVDLQMNSLIPEDTAVYYCAAVGYYYSALDMDYWGQGTQVTVSS", "polyreactivity (PSR sort gate)": "low polyreactivity"},
      {"sequence": "QVQLVESGGGLVQAGGSLRLSCAASGNILLTNAMGWYRQAPGKEREFVAAIRWSGSRTYYADSVKGRFTISRDNAKNTVYLQMNSLKPEDTAVYYCAVRAVWPVSYGYWYYYWGQGTQVTVSS", "polyreactivity (PSR sort gate)": "high polyreactivity"}
    ]}
  ]
}
